The record followed here is US20250129165A1 (IMCHECK THERAPEUTICS, published 2025).

Experiment [1] concerns the target human BTN3A1 antigen (Sino Biological cat. no. 15973-H08H) (human, UniProt O00481 30-254). The experiment can be described thus: SPR, Biacore T200 multi-cycle kinetics; antibody captured on Protein A, BTN3A1 as analyte. A general note: SPR reads the build-up and loss of mass on a sensor chip optically.
For experiment [2], the target named is T1, cynomolgus BTN3A as expressed on cynomolgus PBMCs (cynomolgus).
T1 construct: whole, on cells; also called Cyno PBMC
The experiment can be described thus: flow cytometry on cynomolgus PBMCs. Background: In flow cytometry, cells or beads pass a laser one at a time.

human BTN3A1 antigen (Sino Biological cat. no. 15973-H08H), sequence (O00481 30-254 limits assumed): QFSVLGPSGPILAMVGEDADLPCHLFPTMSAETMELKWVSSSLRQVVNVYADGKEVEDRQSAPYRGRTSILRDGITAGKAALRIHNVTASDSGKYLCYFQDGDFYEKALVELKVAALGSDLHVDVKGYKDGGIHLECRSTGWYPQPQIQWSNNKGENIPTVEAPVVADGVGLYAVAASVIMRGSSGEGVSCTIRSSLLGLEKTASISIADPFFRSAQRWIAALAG

B1: mAb 3, humanized form of mAb 20.1 (antibody, human IgG1, kappa, V domains shown)
VH: QVQLVQSGAEVKKPGASVKVSCKASGYTFTRYYLYWVKQRPGQGLEWIGEINPNNGGTKFNEKFKSRATMTVDKSTRTTYMELSSLRSEDTAVYYCSREDDYDGTPDAMDYWGQGTLVTVSS
VL: DIQMTQSPSSLSASVGDRVTITCHASQNINLWLSWYQQKPGKAPKLLIYRASNLHTGVPSRFSGSGSATDFTFTISSLQPEDIATYYCQQGHSYPYTFGGGTKVDIKR
notes: also called 20.1 Humanized mAb 3; humanized mAb 20.1
Broadly, the Kd is a measure of binding affinity in units of concentration. What is called EC50 is the concentration needed to bring the measured effect to its halfway point. Low values mean a more potent agent, high ones a less potent agent. Take B1: in experiment [1], the Kd came out at 0.319 nM. Besides, the EC50 in experiment [2] was 5.74 µg/mL.
